Measurements from patent US20210139581A1 (Alector, published 2021).

Tests used:
[1] = biological target: T1, human CD33 on primary human monocyte-derived dendritic cells (human, UniProt P20138 18-364); assay: cell-based or functional assay
[2] = biological target: T1, human CD33 on primary human …; assay: cell-based or functional assay; remark: listed apart in the source
human CD33 [3] = biological target: T2, human CD33 (human, UniProt P20138 18-259, limits assumed); assay: BLI (ForteBio), Fab 100 nM on immobilized CD33
T2 construct: Human CD33 immobilized on the BLI sensor tip or the BIAcore C1 chip; also called Siglec-3
Experimental: (§1) The affinities (KD) of the humanized antibodies for human CD33 were measured for each antibody by BioLayer Interferometry in a ForteBio assay according to standard techniques (Estep et al. (2013) MAbs 5(2): 270-8). […] The assay was carried out at room temperature.
The affinity parameters of two of the antibodies, 64.1.2 and 64.1.8, were measured in a separate experiment by BIAcore, where they were directly compared to the parental antibody, AB-64.1, the parental humanized antibody, AB-H64, and the Chimeric Ab.

human CD33 [4] = biological target: T2, human CD33; assay: SPR (BIAcore), Fab over CD33 on C1 chip
Experimental: The affinity parameters for 10 of the 88 humanized antibodies (AB-H1, AB-H3, AB-H6, AB-H11, AB-H22, AB-H24, AB-H26, AB-H63, AB-H64, and AB-H71) were measured in a separate experiment by a more sensitive technique, surface plasmon resonance (BIAcore), and compared to Chimeric Ab and Chimeric Ab #2. BIAcore measurements were performed as follows: human CD33 was immobilized on the surface of a C1 chip, and Fabs were injected for 300 s to monitor association, followed by a 900 s flow in running buffer to monitor dissociation. The Fabs were measured at 5 concentrations: a high concentration of 27 nM and 3-fold serial dilutions.
In a separate experiment, as determined by the more sensitive BIAcore technique, affinity parameters of affinity matured antibodies derived from the humanized antibody AB-H64 were measured and were directly compared to that of the Chimeric Ab, according to the method described in Example 1 above.

human CD33 [5] = biological target: T2, human CD33; assay: BLI (ForteBio), Fab 100 nM on immobilized CD33; remark: listed apart in the source
Experimental: as §1
The affinities of AB-H64 and its variants (Table 5) for human CD33 were measured by Fortebio assay according to the method described in Example 1 above.

[6] = biological target: T1, human CD33 on primary human …; assay: cell-based or functional assay; remark: listed apart in the source

T2 sequence (P20138 18-259 limits assumed): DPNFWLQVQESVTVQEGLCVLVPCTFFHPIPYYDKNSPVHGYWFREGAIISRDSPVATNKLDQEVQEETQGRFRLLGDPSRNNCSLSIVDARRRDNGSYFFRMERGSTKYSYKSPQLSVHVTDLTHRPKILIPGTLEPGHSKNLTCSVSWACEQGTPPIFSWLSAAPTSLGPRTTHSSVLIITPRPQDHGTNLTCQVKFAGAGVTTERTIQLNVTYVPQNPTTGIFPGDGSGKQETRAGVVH
T1 sequence (P20138 18-364): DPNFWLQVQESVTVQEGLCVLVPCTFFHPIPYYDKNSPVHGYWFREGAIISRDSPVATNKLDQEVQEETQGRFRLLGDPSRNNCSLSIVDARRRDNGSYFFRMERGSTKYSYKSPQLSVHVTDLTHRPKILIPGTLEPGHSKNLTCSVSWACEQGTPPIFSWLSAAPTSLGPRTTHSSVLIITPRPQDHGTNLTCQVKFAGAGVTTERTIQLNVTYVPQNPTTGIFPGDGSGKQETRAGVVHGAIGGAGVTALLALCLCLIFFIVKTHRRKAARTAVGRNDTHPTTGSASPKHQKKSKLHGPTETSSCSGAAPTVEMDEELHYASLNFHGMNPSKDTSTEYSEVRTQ

B1: AB-64.1 huIgG1 (antibody)
heavy: not shown
light: DIVLTQSPDSLAVSLGERATINCRASQSVSTSTYSYMHWYQQKPGQPPKLLIKYASNLESGVPDRFSGSGSGTDFTLTISSLQAEDVAVYYCQHSWEIPLTFGQGTKLEIKRTVAAPSVFIFPPSDEQLKSGTASVVCLLNNFYPREAKVQWKVDNALQSGNSQESVTEQDSKDSTYSLSSTLTLSKADYEKHKVYACEVTHQGLSSPVTKSFNRGEC
- Maximal Downregulation (% CD33 remaining) [1]: 17.5%
- Receptor downregulation (pM, EC50) [1]: 36.2 pM

B2: AB-64.1 huIgG1 LALAPS (antibody)
heavy: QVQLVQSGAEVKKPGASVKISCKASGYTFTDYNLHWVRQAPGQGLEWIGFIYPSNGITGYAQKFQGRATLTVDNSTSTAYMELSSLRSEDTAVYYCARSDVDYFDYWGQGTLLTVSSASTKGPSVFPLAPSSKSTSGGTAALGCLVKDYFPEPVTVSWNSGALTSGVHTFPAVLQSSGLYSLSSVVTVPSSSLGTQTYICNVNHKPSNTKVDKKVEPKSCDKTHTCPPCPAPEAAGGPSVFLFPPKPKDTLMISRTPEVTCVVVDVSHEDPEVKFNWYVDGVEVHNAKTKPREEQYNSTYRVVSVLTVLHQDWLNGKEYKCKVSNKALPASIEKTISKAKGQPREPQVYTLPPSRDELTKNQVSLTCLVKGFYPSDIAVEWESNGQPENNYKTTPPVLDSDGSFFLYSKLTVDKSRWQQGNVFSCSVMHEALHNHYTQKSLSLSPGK
light: DIVLTQSPDSLAVSLGERATINCRASQSVSTSTYSYMHWYQQKPGQPPKLLIKYASNLESGVPDRFSGSGSGTDFTLTISSLQAEDVAVYYCQHSWEIPLTFGQGTKLEIKRTVAAPSVFIFPPSDEQLKSGTASVVCLLNNFYPREAKVQWKVDNALQSGNSQESVTEQDSKDSTYSLSSTLTLSKADYEKHKVYACEVTHQGLSSPVTKSFNRGEC
- Maximal Downregulation (% CD33 remaining) [1]: 39.4%
- Receptor downregulation (pM, EC50) [1]: 57.1 pM

B3: AB-64.1 huIgG2 (antibody)
heavy: QVQLVQSGAEVKKPGASVKISCKASGYTFTDYNLHWVRQAPGQGLEWIGFIYPSNGITGYAQKFQGRATLTVDNSTSTAYMELSSLRSEDTAVYYCARSDVDYFDYWGQGTLLTVSSASTKGPSVFPLAPCSRSTSESTAALGCLVKDYFPEPVTVSWNSGALTSGVHTFPAVLQSSGLYSLSSVVTVPSSNFGTQTYTCNVDHKPSNTKVDKTVERKCCVECPPCPAPPVAGPSVFLFPPKPKDTLMISRTPEVTCVVVDVSHEDPEVQFNWYVDGVEVHNAKTKPREEQFNSTFRVVSVLTVVHQDWLNGKEYKCKVSNKGLPAPIEKTISKTKGQPREPQVYTLPPSREEMTKNQVSLTCLVKGFYPSDIAVEWESNGQPENNYKTTPPMLDSDGSFFLYSKLTVDKSRWQQGNVFSCSVMHEALHNHYTQKSLSLSPGK
light: DIVLTQSPDSLAVSLGERATINCRASQSVSTSTYSYMHWYQQKPGQPPKLLIKYASNLESGVPDRFSGSGSGTDFTLTISSLQAEDVAVYYCQHSWEIPLTFGQGTKLEIKRTVAAPSVFIFPPSDEQLKSGTASVVCLLNNFYPREAKVQWKVDNALQSGNSQESVTEQDSKDSTYSLSSTLTLSKADYEKHKVYACEVTHQGLSSPVTKSFNRGEC
- Maximal Downregulation (% CD33 remaining) [1]: 15.1%
- Receptor downregulation (pM, EC50) [1]: 35.6 pM

B4: AB-64.1.12 (antibody, V domains shown)
VH: QVQLVQSGAEVKKPGASVKISCKASGYTFTDYNLHWVRQAPGQGLEWIGFIYPSNRITGYAQKFQGRATLTVDNSASTAYMELSSLRSEDTAVYYCARSDVDYFDYWGQGTLLTVSS
VL: DIVLTQSPDSLAVSLGERATINCRASQSVSTSTYSYMHWYQQKPGQPPKLLIKYASNLESGVPDRFSGSGSGTDFTLTISSLQAEDVAVYYCQHSWEIPLTFGQGTKLEIK
notes: Variant of AB-64.1
- Receptor downregulation (% remaining at 0.16 µg/mL antibody) [2]: 38.5%
- Kd (human CD33 [3]): 0.922 nM

B5: AB-64.1 huIgG1 N297A (antibody, V domains shown)
VH: QVQLVQSGAEVKKPGASVKISCKASGYTFTDYNLHWVRQAPGQGLEWIGFIYPSNGITGYAQKFQGRATLTVDNSTSTAYMELSSLRSEDTAVYYCARSDVDYFDYWGQGTLLTVSS
VL: DIVLTQSPDSLAVSLGERATINCRASQSVSTSTYSYMHWYQQKPGQPPKLLIKYASNLESGVPDRFSGSGSGTDFTLTISSLQAEDVAVYYCQHSWEIPLTFGQGTKLEIK
- Maximal Downregulation (% CD33 remaining) [1]: 41.3%
- Receptor downregulation (pM, EC50) [1]: 29.3 pM

B6: AB-64.1 huIgG1 SELF (antibody, V domains shown)
VH: QVQLVQSGAEVKKPGASVKISCKASGYTFTDYNLHWVRQAPGQGLEWIGFIYPSNGITGYAQKFQGRATLTVDNSTSTAYMELSSLRSEDTAVYYCARSDVDYFDYWGQGTLLTVSS
VL: DIVLTQSPDSLAVSLGERATINCRASQSVSTSTYSYMHWYQQKPGQPPKLLIKYASNLESGVPDRFSGSGSGTDFTLTISSLQAEDVAVYYCQHSWEIPLTFGQGTKLEIK
- Maximal Downregulation (% CD33 remaining) [1]: 10.9%
- Receptor downregulation (pM, EC50) [1]: 31.9 pM

B7: AB-64.3 (antibody, V domains shown)
VH: QVQLVQSGAEVKKPGASVKISCKASGYTFTDYNLHWVRQAPGQGLEWIGFIYPSNGITGYAEKFEGRATLTVDNSTSTAYMELSSLRSEDTAVYYCARSFVDYFDYWGQGTLLTVSS
VL: DIVLTQSPDSLAVSLGERATINCRASQDVSTSTYSYMHWYQQKPGQPPKLLIKYASYLESGVPDRFSGSGSGTDFTLTISSLQAEDVAVYYCEHSWEIPLTFGQGTKLEIK
- Fold Change to AB-H64 (human CD33 [4]): 401 fold
- Fold Change to Chimeric Ab (human CD33 [4]): 303 fold
- Kd (human CD33 [4]): 0.00537 nM
- koff (human CD33 [4]): 2.67e-05 s⁻¹
- kon (human CD33 [4]): 4.98e+06 M⁻¹ s⁻¹
- Fold affinity improvement over parental Ab (AB-H64) (human CD33 [5]): 6.53 fold
- Kd (human CD33 [5]): 0.438 nM
- Receptor downregulation (EC50) [6]: 0.0257 nM

B8: AB-64.1.14 (antibody, V domains shown)
VH: QVQLVQSGAEVKKPGASVKISCKASGYTFTDYNLHWVRQAPGQGLEWIGFIYPSNVITGYAQKFQGRATLTVDQSTSTAYMELSSLRSEDTAVYYCARSDVDYFDYWGQGTLLTVSS
VL: DIVLTQSPDSLAVSLGERATINCRASQSVSTSTYSYMHWYQQKPGQPPKLLIKYASNLESGVPDRFSGSGSGTDFTLTISSLQAEDVAVYYCQHSWEIPLTFGQGTKLEIK
notes: Variant of AB-64.1
- Receptor downregulation (% remaining at 0.16 µg/mL antibody) [2]: 38.4%
- Kd (human CD33 [3]): 0.743 nM

B9: AB-64.4 (antibody, V domains shown)
VH: QVQLVQSGAEVKKPGASVKISCKASGYTFTDYNLHWVRQAPGQGLEWIGFIYPSNGITGYAQKFQGRATLTVDNSTSTAYMELSSLRSEDTAVYYCARSDVDYFDYWGQGTLLTVSS
VL: DIVLTQSPDSLAVSLGERATINCRASQDVSTSTYSYMHWYQQKPGQPPKLLIKYASYLESGVPDRFSGSGSGTDFTLTISSLQAEDVAVYYCEHSWEIPLTFGQGTKLEIK
- Fold Change to AB-H64 (human CD33 [4]): 586 fold
- Fold Change to Chimeric Ab (human CD33 [4]): 443 fold
- Kd (human CD33 [4]): 0.00367 nM
- koff (human CD33 [4]): 1.98e-05 s⁻¹
- kon (human CD33 [4]): 5.4e+06 M⁻¹ s⁻¹
- Fold affinity improvement over parental Ab (AB-H64) (human CD33 [5]): 7.95 fold
- Kd (human CD33 [5]): 0.36 nM
- Receptor downregulation (EC50) [6]: 0.0236 nM

B10: AB-64.1.15 (antibody, V domains shown)
VH: QVQLVQSGAEVKKPGASVKISCKASGYTFTDYNLHWVRQAPGQGLEWIGFIYPSNVITGYAQKFQGRATLTVDNSASTAYMELSSLRSEDTAVYYCARSDVDYFDYWGQGTLLTVSS
VL: DIVLTQSPDSLAVSLGERATINCRASQSVSTSTYSYMHWYQQKPGQPPKLLIKYASNLESGVPDRFSGSGSGTDFTLTISSLQAEDVAVYYCQHSWEIPLTFGQGTKLEIK
notes: Variant of AB-64.1
- Receptor downregulation (% remaining at 0.16 µg/mL antibody) [2]: 38.9%
- Kd (human CD33 [3]): 0.412 nM

B11: AB-64.1.13 (antibody, V domains shown)
VH: QVQLVQSGAEVKKPGASVKISCKASGYTFTDYNLHWVRQAPGQGLEWIGFIYPSNVITGYAQKFQGRATLTVDTSTSTAYMELSSLRSEDTAVYYCARSDVDYFDYWGQGTLLTVSS
VL: DIVLTQSPDSLAVSLGERATINCRASQSVSTSTYSYMHWYQQKPGQPPKLLIKYASNLESGVPDRFSGSGSGTDFTLTISSLQAEDVAVYYCQHSWEIPLTFGQGTKLEIK
notes: Variant of AB-64.1
- Receptor downregulation (% remaining at 0.16 µg/mL antibody) [2]: 35.9%
- Kd (human CD33 [3]): 1.45 nM

B12: AB-64.5 (antibody, V domains shown)
VH: QVQLVQSGAEVKKPGASVKISCKASGYTFTDYNYHWVRQAPGQGLEWIGFIYPSNGITGYAQKFFGRATLTVDNSTSTAYMELSSLRSEDTAVYYCARSDVDYFDYWGQGTLLTVSS
VL: DIVLTQSPDSLAVSLGERATINCRASQSVGTSTYSYMHWYQQKPGQPPKLLIKYASNLESGVPDRFSGSGSGTDFTLTISSLQAEDVAVYYCQHSWEIPLTFGQGTKLEIK
- Fold Change to AB-H64 (human CD33 [4]): 214 fold
- Fold Change to Chimeric Ab (human CD33 [4]): 162 fold
- Kd (human CD33 [4]): 0.0101 nM
- koff (human CD33 [4]): 6.33e-05 s⁻¹
- kon (human CD33 [4]): 6.3e+06 M⁻¹ s⁻¹
- Fold affinity improvement over parental Ab (AB-H64) (human CD33 [5]): 7.76 fold
- Kd (human CD33 [5]): 0.369 nM
- Receptor downregulation (EC50) [6]: 0.0263 nM
